Patent publication US12099068B2, “Biomarkers for graft-versus-host disease” (Incyte Corporation, priority 2018, dated 2024)

B1: INPPL1 (protein, UniProt O15357 1-1258, looked up)
Phosphatidylinositol …: MASACGAPGPGGALGSQAPSWYHRDLSRAAAEELLARAGRDGSFLVRDSESVAGAFALCVLYQKHVHTYRILPDGEDFLAVQTSQGVPVRRFQTLGELIGLYAQPNQGLVCALLLPVEGEREPDPPDDRDASDGEDEKPPLPPRSGSTSISAPTGPSSPLPAPETPTAPAAESAPNGLSTVSHDYLKGSYGLDLEAVRGGASHLPHLTRTLATSCRRLHSEVDKVLSGLEILSKVFDQQSSPMVTRLLQQQNLPQTGEQELESLVLKLSVLKDFLSGIQKKALKALQDMSSTAPPAPQPSTRKAKTIPVQAFEVKLDVTLGDLTKIGKSQKFTLSVDVEGGRLVLLRRQRDSQEDWTTFTHDRIRQLIKSQRVQNKLGVVFEKEKDRTQRKDFIFVSARKREAFCQLLQLMKNKHSKQDEPDMISVFIGTWNMGSVPPPKNVTSWFTSKGLGKTLDEVTVTIPHDIYVFGTQENSVGDREWLDLLRGGLKELTDLDYRPIAMQSLWNIKVAVLVKPEHENRISHVSTSSVKTGIANTLGNKGAVGVSFMFNGTSFGFVNCHLTSGNEKTARRNQNYLDILRLLSLGDRQLNAFDISLRFTHLFWFGDLNYRLDMDIQEILNYISRKEFEPLLRVDQLNLEREKHKVFLRFSEEEISFPPTYRYERGSRDTYAWHKQKPTGVRTNVPSWCDRILWKSYPETHIICNSYGCTDDIVTSDHSPVFGTFEVGVTSQFISKKGLSKTSDQAYIEFESIEAIVKTASRTKFFIEFYSTCLEEYKKSFENDAQSSDNINFLKVQWSSRQLPTLKPILADIEYLQDQHLLLTVKSMDGYESYGECVVALKSMIGSTAQQFLTFLSHRGEETGNIRGSMKVRVPTERLGTRERLYEWISIDKDEAGAKSKAPSVSRGSQEPRSGSRKPAFTEASCPLSRLFEEPEKPPPTGRPPAPPRAAPREEPLTPRLKPEGAPEPEGVAAPPPKNSFNNPAYYVLEGVPHQLLPPEPPSPARAPVPSATKNKVAITVPAPQLGHHRHPRVGEGSSSDEESGGTLPPPDFPPPPLPDSAIFLPPSLDPLPGPVVRGRGGAEARGPPPPKAHPRPPLPPGPSPASTFLGEVASGDDRSCSVLQMAKTLSEVDYAPAGPARSALLPGPLELQPPRGLPSDYGRPLSFPPPRIRESIQEDLAEEAPCLQGGRASGLGEAGMSAWLRAIGLERYEEGLVHNGWDDLEFLSDITEEDLEEAGVQDPAHKRLLLDTLQLSK
B2: TMPRSS15 (protein, UniProt P98073 2-784; P98073 785-1019, looked up)
Enteropeptidase non-catalytic …: GSKRGISSRHHSLSSYEIMFAALFAILVVLCAGLIAVSCLTIKESQRGAALGQSHEARATFKITSGVTYNPNLQDKLSVDFKVLAFDLQQMIDEIFLSSNLKNEYKNSRVLQFENGSIIVVFDLFFAQWVSDENVKEELIQGLEANKSSQLVTFHIDLNSVDILDKLTTTSHLATPGNVSIECLPGSSPCTDALTCIKADLFCDGEVNCPDGSDEDNKMCATVCDGRFLLTGSSGSFQATHYPKPSETSVVCQWIIRVNQGLSIKLSFDDFNTYYTDILDIYEGVGSSKILRASIWETNPGTIRIFSNQVTATFLIESDESDYVGFNATYTAFNSSELNNYEKINCNFEDGFCFWVQDLNDDNEWERIQGSTFSPFTGPNFDHTFGNASGFYISTPTGPGGRQERVGLLSLPLDPTLEPACLSFWYHMYGENVHKLSINISNDQNMEKTVFQKEGNYGDNWNYGQVTLNETVKFKVAFNAFKNKILSDIALDDISLTYGICNGSLYPEPTLVPTPPPELPTDCGGPFELWEPNTTFSSTNFPNSYPNLAFCVWILNAQKGKNIQLHFQEFDLENINDVVEIRDGEEADSLLLAVYTGPGPVKDVFSTTNRMTVLLITNDVLARGGFKANFTTGYHLGIPEPCKADHFQCKNGECVPLVNLCDGHLHCEDGSDEADCVRFFNGTTNNNGLVRFRIQSIWHTACAENWTTQISNDVCQLLGLGSGNSSKPIFPTDGGPFVKLNTAPDGHLILTPSQQCLQDSLIRLQCNHKSCGKKLAAQDITPK
Enteropeptidase catalytic …: IVGGSNAKEGAWPWVVGLYYGGRLLCGASLVSSDWLVSAAHCVYGRNLEPSKWTAILGLHMKSNLTSPQTVPRLIDEIVINPHYNRRRKDNDIAMMHLEFKVNYTDYIQPICLPEENQVFPPGRNCSIAGWGTVVYQGTTANILQEADVPLLSNERCQQQMPEYNITENMICAGYEEGGIDSCQGDSGGPLMCQENNRWFLAGVTSFGYKCALPNRPGVYARVSRFTEWIQSFLH

Test system: plasma proteins
Experiment: Plasma proteins modulated between baseline and day 28 in responders (CR, VGPR, PR; n = 19), Example 6 (Table 13)
Format: in vivo, human
Conditions: plasma protein (OLINK NPX); responders (CR, VGPR, PR; n = 19); itacitinib 200 mg or 300 mg QD with corticosteroids; day 28 vs baseline
Procedure, shortened: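 Longitudinal comparison, day 28 versus baseline, with steroid-naive (N=10) and steroid-refractory (N=18) patients combined. Proteins measured by OLINK proximity extension, log2 normalized protein expression. Differences tested by t tests, ANOVA, Pearson correlation, P<0.05 significant.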

Molecule | Fold Change, Decreased Expression from Baseline to Day 28 | Fold Change, Increased Expression from Baseline to Day 28
B1 | −1.7131 | –
B2 | – | 3.0633
